The target in one assay is T1, His-tagged PCSK9Δhelix (human, UniProt Q8NBP7 31-152; Q8NBP7 168-692).
T1 construct: Human PCSK9 M1-Q692 with an engineered TEV site, cut by TEV protease; new N-terminus of the catalytic domain is S-A168; also called His-PCSK9Δhelix; not shown: His tag
In words: TR-FRET competition (PCSK9Δhelix/Ab20 assay); competitor Ab20. Background: In TR-FRET formats the signal depends on donor and acceptor labels being close together.

For assay [1], the target named is T2, His-tagged, full-length PCSK9 (human, UniProt Q8NBP7 31-692).
T2 construct: secreted PCSK9 is autocatalytically cleaved into prodomain and catalytic domain + CRD (from S153), which stay associated; also called His-PCSK9; proprotein convertase subtilisin/kexin type 9; not shown: His tag
Kind of assay: TR-FRET competition (PCSK9/EGF(A) assay); competitor EGF(A)-Fc.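 Also: proximity signal from anti-His APC on PCSK9 paired with anti-Fc europium on the Fc ligand, read as normalized TR-FRET ratio across compound dilutions.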

Bridge positions count the residues as written; N and C are the ends. Square brackets hold non-standard residues; d marks the D form. Primed or numbered codes have the meaning given here. Ends that are not written are not given here. hArg = N=C(N)NCCCC[C@H](N)C(=O)O; Hyp′ = 3-hydroxyproline; Ahp = NCCCCCCC(=O)O; Ahx = NCCCCCC(=O)O

T1 sequence (Q8NBP7 31-152, stated change not applied, chain 1 of 2): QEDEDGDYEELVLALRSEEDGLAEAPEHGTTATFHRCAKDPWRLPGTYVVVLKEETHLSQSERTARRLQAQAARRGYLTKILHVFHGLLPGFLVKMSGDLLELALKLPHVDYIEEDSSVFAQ
T1 sequence (Q8NBP7 other isoform, or with tags, fused parts or gaps mutant, chain 2 of 2): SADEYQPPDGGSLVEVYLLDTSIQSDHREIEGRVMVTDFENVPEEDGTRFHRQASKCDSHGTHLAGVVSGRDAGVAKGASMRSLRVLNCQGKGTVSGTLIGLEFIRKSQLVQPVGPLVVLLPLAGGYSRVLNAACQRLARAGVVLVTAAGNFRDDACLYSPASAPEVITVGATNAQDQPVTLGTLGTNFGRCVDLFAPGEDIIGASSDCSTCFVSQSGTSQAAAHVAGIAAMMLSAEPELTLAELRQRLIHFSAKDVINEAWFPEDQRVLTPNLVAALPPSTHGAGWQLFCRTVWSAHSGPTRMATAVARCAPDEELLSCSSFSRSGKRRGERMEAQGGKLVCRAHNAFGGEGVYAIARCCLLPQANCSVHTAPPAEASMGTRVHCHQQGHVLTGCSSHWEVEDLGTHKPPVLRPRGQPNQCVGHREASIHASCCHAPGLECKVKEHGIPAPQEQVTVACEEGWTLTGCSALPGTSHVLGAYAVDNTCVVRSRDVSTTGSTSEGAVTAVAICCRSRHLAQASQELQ
T2 sequence (Q8NBP7 31-692 limits assumed): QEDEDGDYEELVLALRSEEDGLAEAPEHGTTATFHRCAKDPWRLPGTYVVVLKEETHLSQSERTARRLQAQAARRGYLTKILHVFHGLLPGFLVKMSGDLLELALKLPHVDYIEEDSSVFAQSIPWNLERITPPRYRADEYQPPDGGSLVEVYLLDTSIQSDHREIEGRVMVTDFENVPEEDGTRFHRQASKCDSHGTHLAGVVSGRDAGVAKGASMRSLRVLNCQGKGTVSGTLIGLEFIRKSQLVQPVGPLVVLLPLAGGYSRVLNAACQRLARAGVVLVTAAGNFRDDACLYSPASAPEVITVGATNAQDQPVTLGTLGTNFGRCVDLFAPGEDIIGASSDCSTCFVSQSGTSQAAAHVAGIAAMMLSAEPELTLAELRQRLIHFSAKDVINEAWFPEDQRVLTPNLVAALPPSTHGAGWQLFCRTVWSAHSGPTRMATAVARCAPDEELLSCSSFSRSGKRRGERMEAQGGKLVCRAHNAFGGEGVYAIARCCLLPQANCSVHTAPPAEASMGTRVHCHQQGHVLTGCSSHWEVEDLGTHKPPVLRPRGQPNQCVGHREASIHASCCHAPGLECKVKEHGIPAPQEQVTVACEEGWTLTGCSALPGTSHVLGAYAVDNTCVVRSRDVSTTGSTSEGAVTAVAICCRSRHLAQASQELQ
Procedure for His-tagged PCSK9Δhelix: Signal generation in the PCSK9 binding assays was dependent upon the binding interaction to bring into close proximity the His-tag on the PCSK9 and the Fc-tag on the ligand. Anti-His-APC was bound to the His-tag, and anti-Fc-europium was bound to the Fc-tag.
Compounds were solubilized and dilutions were prepared in DMSO. […] The plate was centrifuged to mix the well contents and allowed to incubate for 30 min. […] The normalized TR-FRET ratios were plotted as a function of the compound concentrations, and the IC₅₀ values were determined using a 4-parameter logistic regression.

B1: Compound 109 (Ac-CrLPWNLQRIGLPC-NH2) (peptide)
peptide: Ac-C[dR]LPWNLQRIGLPC-NH2
modifications: disulfide 1-14
SMILES: CC[C@H](C)[C@@H]1NC(=O)[C@H](CCCNC(=N)N)NC(=O)[C@H](CCC(N)=O)NC(=O)[C@H](CC(C)C)NC(=O)[C@H](CC(N)=O)NC(=O)[C@H](Cc2c[nH]c3ccccc23)NC(=O)[C@@H]2CCCN2C(=O)[C@H](CC(C)C)NC(=O)[C@@H](CCCNC(=N)N)NC(=O)[C@@H](NC(C)=O)CSSC[C@@H](C(N)=O)NC(=O)[C@@H]2CCCN2C(=O)[C@H](CC(C)C)NC(=O)CNC1=O
Take B1: the IC50 with His-tagged PCSK9Δhelix is 1.67 µM; in assay [1], above 50 µM.

B2: Compound 121 (Ac-CRLPWNLQRI-(Ahp)-C-NH2) (peptide)
peptide: Ac-CRLPWNLQRI[Ahp]C-NH2
modifications: disulfide 1-12
SMILES: CC[C@H](C)[C@@H]1NC(=O)[C@H](CCCNC(=N)N)NC(=O)[C@H](CCC(N)=O)NC(=O)[C@H](CC(C)C)NC(=O)[C@H](CC(N)=O)NC(=O)[C@H](Cc2c[nH]c3ccccc23)NC(=O)[C@@H]2CCCN2C(=O)[C@H](CC(C)C)NC(=O)[C@H](CCCNC(=N)N)NC(=O)[C@@H](NC(C)=O)CSSC[C@@H](C(N)=O)NC(=O)CCCCCCNC1=O
On to B2, for which the figures for the IC50 (in the assay with His-tagged PCSK9Δhelix; in assay [1]) were 40.3 µM and above 50 µM, respectively.

B3: Compound 63 (Ac-MCLWNLKRIGSQCEY-NH2) (peptide)
peptide: Ac-MCLWNLKRIGSQCEY-NH2
modifications: disulfide 2-13
SMILES: CC[C@H](C)[C@@H]1NC(=O)[C@H](CCCNC(=N)N)NC(=O)[C@H](CCCCN)NC(=O)[C@H](CC(C)C)NC(=O)[C@H](CC(N)=O)NC(=O)[C@H](Cc2c[nH]c3ccccc23)NC(=O)[C@H](CC(C)C)NC(=O)[C@@H](NC(=O)[C@H](CCSC)NC(C)=O)CSSC[C@@H](C(=O)N[C@@H](CCC(=O)O)C(=O)N[C@@H](Cc2ccc(O)cc2)C(N)=O)NC(=O)[C@H](CCC(N)=O)NC(=O)[C@H](CO)NC(=O)CNC1=O
Consider B3, for which the IC50 with His-tagged PCSK9Δhelix was 6 µM; in assay [1] it was 14.6 µM.

B4: Compound 65 (Ac-WCLWNLKRIGSQCEY-NH2) (peptide)
peptide: Ac-WCLWNLKRIGSQCEY-NH2
modifications: disulfide 2-13
SMILES: CC[C@H](C)[C@@H]1NC(=O)[C@H](CCCNC(=N)N)NC(=O)[C@H](CCCCN)NC(=O)[C@H](CC(C)C)NC(=O)[C@H](CC(N)=O)NC(=O)[C@H](Cc2c[nH]c3ccccc23)NC(=O)[C@H](CC(C)C)NC(=O)[C@@H](NC(=O)[C@H](Cc2c[nH]c3ccccc23)NC(C)=O)CSSC[C@@H](C(=O)N[C@@H](CCC(=O)O)C(=O)N[C@@H](Cc2ccc(O)cc2)C(N)=O)NC(=O)[C@H](CCC(N)=O)NC(=O)[C@H](CO)NC(=O)CNC1=O
Regarding B4, the results for the IC50 (with His-tagged PCSK9Δhelix; in assay [1]) were 7.1 µM and above 50 µM, respectively.

B5: Compound 95 (Ac-FCLWNLKRIGSQCEY-NH2) (peptide)
peptide: Ac-FCLWNLKRIGSQCEY-NH2
modifications: disulfide 2-13
SMILES: CC[C@H](C)[C@@H]1NC(=O)[C@H](CCCNC(=N)N)NC(=O)[C@H](CCCCN)NC(=O)[C@H](CC(C)C)NC(=O)[C@H](CC(N)=O)NC(=O)[C@H](Cc2c[nH]c3ccccc23)NC(=O)[C@H](CC(C)C)NC(=O)[C@@H](NC(=O)[C@H](Cc2ccccc2)NC(C)=O)CSSC[C@@H](C(=O)N[C@@H](CCC(=O)O)C(=O)N[C@@H](Cc2ccc(O)cc2)C(N)=O)NC(=O)[C@H](CCC(N)=O)NC(=O)[C@H](CO)NC(=O)CNC1=O
As for B5, the IC50 was 12.7 µM in the assay with His-tagged PCSK9Δhelix and above 50 µM in assay [1].

B6: Compound 110 (Ac-cRLPWNLQRIGLPC-NH2) (peptide)
peptide: Ac-[dC]RLPWNLQRIGLPC-NH2
modifications: disulfide 1-14
SMILES: CC[C@H](C)[C@@H]1NC(=O)[C@H](CCCNC(=N)N)NC(=O)[C@H](CCC(N)=O)NC(=O)[C@H](CC(C)C)NC(=O)[C@H](CC(N)=O)NC(=O)[C@H](Cc2c[nH]c3ccccc23)NC(=O)[C@@H]2CCCN2C(=O)[C@H](CC(C)C)NC(=O)[C@H](CCCNC(=N)N)NC(=O)[C@H](NC(C)=O)CSSC[C@@H](C(N)=O)NC(=O)[C@@H]2CCCN2C(=O)[C@H](CC(C)C)NC(=O)CNC1=O
For B6, the half-inhibitory concentration (IC50) in the assay with His-tagged PCSK9Δhelix is 1.78 µM; in assay [1], above 50 µM.

B7: Compound 116 (Ac-CRLPWNLQRI-(Ahx)-C-NH2) (peptide)
peptide: Ac-CRLPWNLQRI[Ahx]C-NH2
modifications: disulfide 1-12
SMILES: CC[C@H](C)[C@@H]1NC(=O)[C@H](CCCNC(=N)N)NC(=O)[C@H](CCC(N)=O)NC(=O)[C@H](CC(C)C)NC(=O)[C@H](CC(N)=O)NC(=O)[C@H](Cc2c[nH]c3ccccc23)NC(=O)[C@@H]2CCCN2C(=O)[C@H](CC(C)C)NC(=O)[C@H](CCCNC(=N)N)NC(=O)[C@@H](NC(C)=O)CSSC[C@@H](C(N)=O)NC(=O)CCCCCNC1=O
For B7, the IC50 is 31.6 µM with His-tagged PCSK9Δhelix and above 50 µM in assay [1].

B8: Compound 37 (Ac-SG-CRL(Hyp)WNLQRIGLPC-NH2) (peptide)
peptide: Ac-SGCRL[Hyp′]WNLQRIGLPC-NH2
modifications: disulfide 3-16
For B8, the figures for the concentration for half-maximal inhibition (IC50) (with His-tagged PCSK9Δhelix; in assay [1]) were 11.1 µM and above 50 µM, respectively.

B9: Compound 89 (WCLWNLKRIGSQCWF-NH2) (peptide)
peptide: WCLWNLKRIGSQCWF-NH2
modifications: disulfide 2-13; N-terminus assumed
SMILES: CC[C@H](C)[C@@H]1NC(=O)[C@H](CCCNC(=N)N)NC(=O)[C@H](CCCCN)NC(=O)[C@H](CC(C)C)NC(=O)[C@H](CC(N)=O)NC(=O)[C@H](Cc2c[nH]c3ccccc23)NC(=O)[C@H](CC(C)C)NC(=O)[C@@H](NC(=O)[C@@H](N)Cc2c[nH]c3ccccc23)CSSC[C@@H](C(=O)N[C@@H](Cc2c[nH]c3ccccc23)C(=O)N[C@@H](Cc2ccccc2)C(N)=O)NC(=O)[C@H](CCC(N)=O)NC(=O)[C@H](CO)NC(=O)CNC1=O
Consider B9, for which the IC50 is 2.98 µM in the assay with His-tagged PCSK9Δhelix and 6.9 µM in assay [1].

B10: Compound 117 (Ac-CRLPWNLQ(homoR)IGLPC-NH2) (peptide)
peptide: Ac-CRLPWNLQ[hArg]IGLPC-NH2
modifications: disulfide 1-14
SMILES: CC[C@H](C)[C@@H]1NC(=O)[C@H](CCCCNC(=N)N)NC(=O)[C@H](CCC(N)=O)NC(=O)[C@H](CC(C)C)NC(=O)[C@H](CC(N)=O)NC(=O)[C@H](Cc2c[nH]c3ccccc23)NC(=O)[C@@H]2CCCN2C(=O)[C@H](CC(C)C)NC(=O)[C@H](CCCNC(=N)N)NC(=O)[C@@H](NC(C)=O)CSSC[C@@H](C(N)=O)NC(=O)[C@@H]2CCCN2C(=O)[C@H](CC(C)C)NC(=O)CNC1=O
In the case of B10, the IC50 with His-tagged PCSK9Δhelix was 0.334 µM; in assay [1], above 50 µM.

B11: Compound 108 (Ac-CRlPWNLQRIGLPC-NH2) (peptide)
peptide: Ac-CR[dL]PWNLQRIGLPC-NH2
modifications: disulfide 1-14
SMILES: CC[C@H](C)[C@@H]1NC(=O)[C@H](CCCNC(=N)N)NC(=O)[C@H](CCC(N)=O)NC(=O)[C@H](CC(C)C)NC(=O)[C@H](CC(N)=O)NC(=O)[C@H](Cc2c[nH]c3ccccc23)NC(=O)[C@@H]2CCCN2C(=O)[C@@H](CC(C)C)NC(=O)[C@H](CCCNC(=N)N)NC(=O)[C@@H](NC(C)=O)CSSC[C@@H](C(N)=O)NC(=O)[C@@H]2CCCN2C(=O)[C@H](CC(C)C)NC(=O)CNC1=O
Regarding B11, the IC50 was 28.2 µM in the assay with His-tagged PCSK9Δhelix and above 50 µM in assay [1].

A word on the IC50: it is the concentration that gives 50% inhibition. A higher IC50 goes with a need for much substance.
